Paper PMC6529637

Target: BamA (E. coli (endogenous in MC4100-derived strains)), P0A940
Assay: cross-linking; in vivo formaldehyde cross-linking (0.7%, 12 min, room temperature, cells in PBS pH 7.6), SDS-PAGE and immunoblot with anti-RcsF and anti-BamA; strains grown in glucose minimal medium at 30°C; backgrounds: WT, ΔbamE, bamA101, bamB::Kan, bamD(R197L), bamD(L13P), bamA(F494L) and combinations
Settings: remark: other sources report otherwise

- fraction of BamA cross-linked to RcsF (ΔbamE strain): 30%
B1: regulator of capsule synthesis protein F (RcsF), P69411 16-134 (natural protein)
chain: CSMLSRSPVEPVQSTAPQPKAEPAKPKAPRATPVRIYTNAEELVGKPFRDLGEVSGDSCQASNQDSPPSIPTARKRMQINASKMKANAVLLHSCEVTSGTPGCYRQAVCIGSALNITAK
modifications: here or on the partner: lipid moiety on the N-terminal domain (lipoprotein)
